The numbers were not newly measured in paper PMC10746543, “Design principles for cyclin K molecular glue degraders” (Nature Chemical Biology, 2023), which cites them from elsewhere.

pKd: −log10 of the molar value.

For the data set, the target named is CDK12-cyclin K (Homo sapiens) (UniProt Q9NYV4).
Chain of CDK12-cyclin K (Homo sapiens) (Q9NYV4 whole entry, chain 1 of 2): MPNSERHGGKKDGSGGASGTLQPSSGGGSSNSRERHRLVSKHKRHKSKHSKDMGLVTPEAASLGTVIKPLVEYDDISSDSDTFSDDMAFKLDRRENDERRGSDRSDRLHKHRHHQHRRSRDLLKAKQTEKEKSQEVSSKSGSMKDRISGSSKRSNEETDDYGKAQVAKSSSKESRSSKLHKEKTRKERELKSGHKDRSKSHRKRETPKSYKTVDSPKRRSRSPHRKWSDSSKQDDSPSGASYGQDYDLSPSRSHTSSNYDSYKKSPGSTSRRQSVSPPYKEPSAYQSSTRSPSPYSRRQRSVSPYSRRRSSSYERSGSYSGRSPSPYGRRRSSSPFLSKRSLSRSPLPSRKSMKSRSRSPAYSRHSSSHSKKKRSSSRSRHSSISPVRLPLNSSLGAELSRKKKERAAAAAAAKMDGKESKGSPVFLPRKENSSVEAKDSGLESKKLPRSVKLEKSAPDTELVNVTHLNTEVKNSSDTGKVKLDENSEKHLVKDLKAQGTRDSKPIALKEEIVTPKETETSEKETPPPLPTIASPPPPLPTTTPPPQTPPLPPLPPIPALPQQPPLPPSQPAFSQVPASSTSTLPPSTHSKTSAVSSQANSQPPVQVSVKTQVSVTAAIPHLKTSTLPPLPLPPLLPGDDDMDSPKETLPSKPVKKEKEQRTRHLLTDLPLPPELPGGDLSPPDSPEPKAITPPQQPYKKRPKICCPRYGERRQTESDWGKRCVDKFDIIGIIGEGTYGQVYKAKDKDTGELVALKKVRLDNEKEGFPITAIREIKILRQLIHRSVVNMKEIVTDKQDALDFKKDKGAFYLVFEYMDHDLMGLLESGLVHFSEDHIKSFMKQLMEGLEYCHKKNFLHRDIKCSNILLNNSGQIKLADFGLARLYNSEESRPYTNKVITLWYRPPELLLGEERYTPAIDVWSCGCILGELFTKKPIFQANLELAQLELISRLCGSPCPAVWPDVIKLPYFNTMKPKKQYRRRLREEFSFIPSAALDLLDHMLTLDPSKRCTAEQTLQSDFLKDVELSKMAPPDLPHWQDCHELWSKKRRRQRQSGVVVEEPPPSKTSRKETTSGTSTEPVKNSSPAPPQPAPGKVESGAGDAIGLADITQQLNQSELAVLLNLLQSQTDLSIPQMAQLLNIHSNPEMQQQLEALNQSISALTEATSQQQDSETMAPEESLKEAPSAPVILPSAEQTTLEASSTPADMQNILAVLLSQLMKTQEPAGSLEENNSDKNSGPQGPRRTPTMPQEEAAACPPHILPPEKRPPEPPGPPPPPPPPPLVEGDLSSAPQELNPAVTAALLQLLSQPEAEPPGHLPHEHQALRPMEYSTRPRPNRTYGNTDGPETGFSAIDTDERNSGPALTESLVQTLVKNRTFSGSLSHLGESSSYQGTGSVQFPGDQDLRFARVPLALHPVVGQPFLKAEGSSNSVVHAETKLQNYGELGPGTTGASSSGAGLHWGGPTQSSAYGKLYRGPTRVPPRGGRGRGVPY
Chain of CDK12-cyclin K (Homo sapiens) (O75909 whole entry, chain 2 of 2, further chain): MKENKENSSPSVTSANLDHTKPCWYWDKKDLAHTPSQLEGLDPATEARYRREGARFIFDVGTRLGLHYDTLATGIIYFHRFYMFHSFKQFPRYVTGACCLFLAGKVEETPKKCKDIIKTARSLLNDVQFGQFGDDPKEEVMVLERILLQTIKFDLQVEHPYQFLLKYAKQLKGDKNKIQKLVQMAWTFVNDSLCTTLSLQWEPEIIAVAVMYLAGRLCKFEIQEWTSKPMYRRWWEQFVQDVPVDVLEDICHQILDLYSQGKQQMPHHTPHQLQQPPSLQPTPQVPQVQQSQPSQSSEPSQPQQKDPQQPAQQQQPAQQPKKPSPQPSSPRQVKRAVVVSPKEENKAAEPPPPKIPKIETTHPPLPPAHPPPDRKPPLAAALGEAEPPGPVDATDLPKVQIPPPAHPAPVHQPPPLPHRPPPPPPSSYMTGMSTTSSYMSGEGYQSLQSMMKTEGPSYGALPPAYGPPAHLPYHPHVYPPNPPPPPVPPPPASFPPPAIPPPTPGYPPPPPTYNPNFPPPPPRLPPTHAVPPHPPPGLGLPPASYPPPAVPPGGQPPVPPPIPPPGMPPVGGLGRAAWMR

Chain of DDB1 (Q16531 2-1140): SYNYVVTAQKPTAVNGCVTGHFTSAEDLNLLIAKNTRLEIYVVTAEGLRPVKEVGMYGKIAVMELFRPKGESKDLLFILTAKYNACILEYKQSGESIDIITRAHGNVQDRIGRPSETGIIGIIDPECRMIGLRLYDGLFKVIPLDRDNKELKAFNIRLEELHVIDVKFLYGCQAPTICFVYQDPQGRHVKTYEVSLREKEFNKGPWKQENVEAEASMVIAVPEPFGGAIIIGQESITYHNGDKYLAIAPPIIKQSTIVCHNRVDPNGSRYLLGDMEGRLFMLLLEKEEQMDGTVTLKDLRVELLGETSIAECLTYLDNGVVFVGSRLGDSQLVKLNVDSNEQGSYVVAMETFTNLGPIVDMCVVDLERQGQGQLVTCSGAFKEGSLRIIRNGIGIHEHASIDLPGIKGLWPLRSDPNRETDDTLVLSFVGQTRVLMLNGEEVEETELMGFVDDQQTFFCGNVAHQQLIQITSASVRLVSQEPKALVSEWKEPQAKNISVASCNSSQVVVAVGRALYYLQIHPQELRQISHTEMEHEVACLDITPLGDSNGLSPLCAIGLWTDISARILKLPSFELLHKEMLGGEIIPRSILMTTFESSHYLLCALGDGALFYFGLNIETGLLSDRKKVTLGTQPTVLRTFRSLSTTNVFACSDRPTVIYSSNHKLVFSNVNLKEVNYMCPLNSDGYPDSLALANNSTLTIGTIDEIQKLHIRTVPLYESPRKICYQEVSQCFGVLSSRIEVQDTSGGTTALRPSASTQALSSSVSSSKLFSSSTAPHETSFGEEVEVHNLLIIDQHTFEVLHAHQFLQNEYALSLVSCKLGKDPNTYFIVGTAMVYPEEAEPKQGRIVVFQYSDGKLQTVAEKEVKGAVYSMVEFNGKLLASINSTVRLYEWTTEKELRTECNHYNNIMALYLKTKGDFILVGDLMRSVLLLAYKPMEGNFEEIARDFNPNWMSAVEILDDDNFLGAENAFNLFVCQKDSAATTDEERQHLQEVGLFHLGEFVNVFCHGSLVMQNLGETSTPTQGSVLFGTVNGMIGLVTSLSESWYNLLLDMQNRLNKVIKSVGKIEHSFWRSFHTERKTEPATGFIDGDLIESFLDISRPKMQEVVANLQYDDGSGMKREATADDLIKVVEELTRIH

DDB1 (from UniProt Q16531): the pKd (as a rule, the negative decadic logarithm of the Kd, by convention in mol/L) was 4.30.
